Measurements as given in PMC12480839, “Selective agonists of KIR and NKG2A to evade missing self response of natural killer cells” (Scientific Reports, 2025).

Experiments:
[1] = molecular target: T1, recombinant KIR2DL2 protein (flow cytometry binding assay) (UniProt P43627); assay: flow cytometry on cells; recombinant receptor proteins at 0.1 µM in autoMACS Running Buffer added to 1 × 10^4 K562 cells expressing the membrane-bound scFv, 4 °C, 90 min; detected with APC anti-human IgG Fc antibody; median fluorescence normalised to control K562 cells; conditions: one partner purified
T1 construct: KIR2DL2
T1 sequence (P43627 22-245): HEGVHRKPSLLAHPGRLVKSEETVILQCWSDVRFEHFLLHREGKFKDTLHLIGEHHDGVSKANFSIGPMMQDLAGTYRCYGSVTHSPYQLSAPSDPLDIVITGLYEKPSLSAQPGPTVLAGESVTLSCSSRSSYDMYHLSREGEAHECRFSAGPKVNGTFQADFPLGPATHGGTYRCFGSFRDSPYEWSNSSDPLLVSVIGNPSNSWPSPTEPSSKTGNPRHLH

[2] = molecular target: T2, recombinant KIR2DL3 protein (flow cytometry binding assay) (UniProt P43628); assay: as above; conditions: one partner purified
T2 construct: KIR2DL3; In the functional rows the receptor was whole KIR2DL3*001 expressed on NK-92 cells
T2 sequence (P43628 22-245): as the sequence (P43627 22-245) above, with R16P, E35Q, C148R, I200T, K216E counted along it

binding result [1]: binds | binding result [2]: binds
B1: membrane-bound KIR2DL2/3 agonist 61 scFv expressed on K562 cells (scFv, V domains shown)
VH: QVQLVQSGAEVKKPGSSVKVSCKASGGTFSSFAISWVRQAPGQGLEWMGGIIPIFGTANYAQKFQGRVTITADESTSTAYMELSSLRSEDTAVYYCARVSGTTGGYYYGMDVWGQGTLVTVSS
VL: AIRMTQSPSSVSASVGDRVTITCRASQGIGNWLAWYQQKPGRAPKLLISTASSLQSGVPSRFSGGGSGRGFTLTISSLQLEDFATYYCQQSYITPWTFGQGTKVEIK
notes: (G4S)3 linker between the two scFv chains; second variable domain of agonist 61; Made with a CD8 signal peptide; firefly luciferase follows across a T2A peptide; also called scFv 61; KIR2DL2/3-specific scFv; source: K562 cells, transduced, on the cell surface; not shown: truncated human CD8 (CD8 hinge), C-terminal, kept
